Assay: label from the status in PepcDB records

Sequence	protein production
ADAQLIGHTNPSGEITFGEETFTIAQALDTLERDYREVYPLNVTTADVEALPDFATALPKADTDSEEANASAGDKAVHVLLPVFPGTNSEYDMAEAFEAAGATTEFHIIRNLNSEMLAADTEAFITKLQSANILAFSGGFSLGDEPDGSAKFMAAFLRSDTVAAAIKDFVARDGLVLGICNGFQALVKSGFLPYGDPAKMSAESPTLAHNRQLRHVSRIATTRVSSVASPWLSTFTPGQQHLMPVSHGEGRFVVSEKEAQALFSAGQVAFQYVDAEGTPTMEAPANPNGSNYAIEGIISPDGRILGKMGHPERFRDGLMRNIPGMEIQDIFANAVNYCRKSQR	failed
MDVLSPGQGNNTTSPPAPFETGGNTTGISDVTVSYQVITSLLLGTLIFCAVLGNACVVAAIALERSLQNVANYLIGSLAVTDLMVSVLVLPMAALYQVLNKWTLGQVTCDLFIALDVLCCTSSILHLCAIALDRYWAITDPIDYVNKRTPRRAAALISLTWLIGFLISIPPMLGWRTPEDRSDPDACTISKDHGYTIYSTFGAFYIPLLLMLVLYGRIFRAARFRIRKTVKKVEKTGADTRHGASPAPQPKKSVNGESGSRNWRLGVESKAGGALCANGAVRQGDDGAALEVIEVHRVGNSKEHLPLPSEAGPTPCAPASFERKNERNAEAKRKMALARERKTVKTLGIIMGTFILCWLPFFIVALVLPFCESSCHMPTLLGAIINWLGYSNSLLNPVIYAYFNKDFQNAFKKIIKCKFCRQ	failed
MDYRQLHRWDLPPEEAIKVQNELRKKIKLTPYEGEPEYVAGVDLSFPGKEEGLAVIVVLEYPSFKILEVVSERGEITFPYIPGLLAFREGPLFLKAWEKLRTKPDVVVFDGQGLAHPRKLGIASHMGLFIEIPTIGVAKSRLYGTFKMPEDKRCSWSYLYDGEEIIGCVIRTKEGSAPIFVSPGHLMDVESSKRLIKAFTLPGRRIPEPTRLAHIYTQRLKKGLFLEHHHHHH	not failed
DVRVKFEHRGEKRILQFPRPVKLEDLRSKAKIAFGQSMDLHYTNNELVIPLTTQDDLDKAVELLDRSIHMKSLKILLVINGSTQATNLEP	not failed
KVVKFSYMWTINNFSFCREEMGEVIKSSTFSSGANDKLKWCLRVNPKGLDEESKDYLSLYLLLVSCPKSEVRAKFKFSILNAKGEETKAMESQRAYRFVQGKDWGFKKFIRRDFLLDEANGLLPDDKLTLFCEVSVVQDSVNISGQ	not failed
PFKESQARGLLQDNMANSYNGGDFEDGLLNLSKEVFPTDKYLYQDGQFLDKKTINAYLNPKYTKREIDKMSEKDKKDKKANENLGLNPSHEGETNPEKIAEKSPAYLSNILEQDFYGGGDTKGKNIKGMTIGLAMNSVYYYKKEKDGPTFSKKLDDSEVKKQGKQMASEILSRLRENDDLKDIPIHFAIYKQSSEDSITPGEFITQATAEKSQTKLNEWHNINEKSALLPSSTAADYDENLNNNFKQFNDNLQSYFSNFTQAVGKVKFVDKKPQRLVVDLPIDYYGQAETIGITQYVTEQANKYFDKIDNYEIRIKDGNQPRALISKTKDDKEPQVHIYSN	not failed
MMENPQQGLEMRSIVVAYYREQAVSTLVKTLIFIVTLLFIGRSFSEEKNYDMQQLSAQQAYENGRLLRAQFKNLAAREYLKYAADLGEPNAAYLYAMEVANYRTTIRTPPESQHYLLLAAQGGSRQAMRVLYQNGEWLRAAERSLWQQTYYDTLIELGSREPSQAAYELALFHQKDNPKLAQHYLTIAVEFEHPAALMLMAQQIEQGEGSYPMPGSRATEARKTYLKAAQTGYIPAIRNYIQLLENKGKYQDAYYWRQQAVQRGDLTSLVAMGGILSGQSEFYRFVEPDLKQAKAYFNRYLEVAGSDRLSHVYQNSQKQLLDISMQLNGHEKEIAEKIELQLENYQPFFNHDAYWDN	failed
MVVVTGREPDSRRQDGAMSSSDAEDDFLEPATPTATQAGHALPLLPQEFPEVVPLNIGGAHFTTRLSTLRCYEDTMLAAMFSGRHYIPTDSEGRYFIDRDGTHFGDVLNFLRSGDLPPRERVRAVYKEAQYYAIGPLLEQLENMQPLKGEKVRQAFLGLMPYYKDHLERIVEIARLRAVQRKARFAKLKVCVFKEEMPITPYECPLLNSLRFERSESDGQLFEHHCEVDVSFGPWEAVADVYDLLHCLVTDLSAQGLTVDHQCIGVCDKHLVNHYYCKRPIYEFKITW	not failed
MEQTTIDGIALTLAGPVQLPLKWVGQDELLQQLLAAWMVIDDRDIPFSPRLIGKPGVGKTTLAYAAARRLGRPVYLFQATMDTRPEDLIITPVIGPDGKIQYAASSLVSAMVKGGVLILDEGNRMSEKAWASLAPLLDDRRYVESIITGLRVPAHRDFRIVVTMNEDASTFEVPEYIHSRLQPQIFIDFPEADEELMILKENLPFAPTRILKYVVDFLQRAHAADELYSVRDGINIARYALKMMAATERDAAELLPLAVERVLGDEALRYLALEHHHHHH	failed
MNVSTAELLSWVVKSSYLVAATLFLLGLQRMASPLSARSGIRWAGLGMLIATVATFFLPELHNVPLILAALAIGTGVAWWSAKKVAITDMPQMVALYNGMGGGSAAAIGAVELLRFSFFANRDTAHWSAQAVAELAARQPDTAMVVLAVIGSAIGAVSLSGSIIAWAKLDGRLDRRMTFPGQQAFNLAVAVAVLALAIWAAGSLQPLAIIAFFVVALALGVLMTLPIGGADMPVVISLYNAFTGLAVAFEGYVLGNEALIIAGMMVGAAGILLTRLMAKAMNRPISGVLFSNFGGGGQAQEISGVQKPIEAGDVAAMMAFAERVVIVPGYGMAVAQAQHKIWELAQRLMARGVKVKFAIHPVAGRMPGHMNVLLAEAGVPYDLIADMDDINPEFASTDVSLVIGANDVVNPVAKTDSASPIYGMPILDVVNSRNTVVIKRGKGTGFAGIENALFYADNTRMLYGDGAEAAGALVSELKALDGSGH	failed
MNELTQSDNYQLLNRELAAPDPWGLDANPFERERHTQMLRLALAQGSISSALEVGCAAGAFTVQLAPHCKRLTVIDVVPQAIERSRRRIRGSPHISWIVSDVQQFSPDERFDLIVVAEVLYYIGGIAEMRGAVRNLVRMLAPDGYLVFGSARDANCRRWGHVAGAETILGMLNETLLEVERLECRGESVNEDCLLACFRNPFSAS	failed
MLTIDTASRTFHCKTWVTGQTQGKAVIARERISFWGGFDPQTGRIVDPYSSLRGRDISDCVLILLSSKGSSGTSGMLSLATRAGHAPAAMIQVEMDPVTVMGCLVNNIPLLQATGFDPFEQIQDGDLVRIDGENGTITLAPGQALEHHHHHH	not failed
MRMENQKDLQENYLKVLERVELGSRVSGTVVNIMKDYVLVDIGYKSEGFIKIEEFENVPQVGDRLEAIVVRIGGELGLILSVEKLNSLNFQDKVYEYIQNKKIIKGKVLVELPNGYKIQINENVSGFMPFYLSSKSKDEKLKRGSVVEFYILEASEADGLRLILDRRTLEKERDLAKRIELVSSYNEEDVVDGVVERITEYGAIVKIKNFVTGILHKRNIAFNQVENVEDFVRVGDKLKLKIIKINPQTGKMELSLKALKANPWDSVDVKYKIDSIVKGKVVKILPFGAVIELDSELSGFLHISNFSWIRVVKSPQELIKLGQIVEVKILEIDKENQKISLGIKQINENPWERLTEKYPIGRVVQGVVTNITKTGAFVNIEEGIDAYVSKFDISWLEEIDPEEYFKIGDLVNGKVLEVDKRKRNVRLGIKQLEESPWEDFSKSYKKGDTIEVEIVEKKSKGFQVRVYNKIMGFISKIQLGDTKESSLETFEKLNVGDKLKVVITSIDSKDKSVLLSYREYENQRSREEISSYLFKGNDEESYKPFENLLKRDELEHHHHHH	not failed
MLWFAMSSVLRVRPTKIELIRLKRRKALAEKVHRILRERLTILVNEFLVRVREAYSLRRTVNDLVFNLYNDSVLLNSVYGEYGFQYFRSITVEGLRAVIGVENIMGVKTRSAVVKHSKTIEYVYPGFDSFRDGARKLIEAIIELGRAEQALIALGREIERTKRKVNALKYIIIPRLANTIRYLNMKFEEREREEKARLKRIKSVLEKRR	failed
MADFSRLPGPNADLWDWQLLAACRGVDSSLFFHPEGERGAARSARENSAKEVCMRCPVRAECAAHALAVREPYGVWGGLTEDEREELMGRARNRLVAATASASAGGEAAGPH	failed
MSSSREENVYLAKLAEQAERYEEMVEFMEKVAKTVDTDELTVEERNLLSVAYKNVIGARRASWRIISSIEQKEESRGNDDHVSIIKDYRGKIETELSKICDGILNLLDSHLVPTASLAESKVFYLKMKGDYHRYLAEFKTGAERKEAAESTLVAYKSAQDIALADLAPTHPIRLGLALNFSVFYYEILNSPDRACSLAKQAFDEAISELDTLGEESYKDSTLIMQLLRDNLTLWNSDINDEAGGDEIKEASKHEPEEGKPAETGQ	failed
MRNKNMSTIYQTSATASAGRNGVVSTEDKLLELNLSYPKEMGGSGTATNPEQLFAVGYAACFSNAILHVAREAKVALKEAPVTATVGIGPNGQGGFALSVALAAHIALEDEQARQLVTVAHQVCPYSNAVRGNIDVQVSVNGLAL	not failed
MTELTILLGLAAAGYGVSHWTQLPAIPFLLMGGLALNATGAVGDAGFVEDVLFLSVSILLFVAGTDLSLTRVGPFKKTAFVIGVAQFAGLAAAALGIAYGLDYALTDALYLGLALAASSTIVGVRLLQRRQQMFEPYGRTVLGALLLQDVIVVLLLPLLVRLPDGSAAVLGSLGGTIVLLVGVGVVMKGVVPLLLKRELDAETQLLAVLGVLFGFMGAAAWLDVPLFAAAFLAGVSLSGFPFSGIVHSEMQPLYDFFSALFFASLGVAAPQPAPVLFGHAALFAGAVLVLTPLIVAVVGAWAGLVAQSALESGLLLAQTSELSLVVGLQALVAGQIGGEVFSVIVLTTVFTMMLTPLLTSETVVWELVRWHPSRQSDVLSEVPSNHVLVVGGGRSARPLLRLLRESKYEAVVVDEDPTVVDRLRDQGVRCVRGDGSDRAVLLKAGGAQARIVVSLLRNPKAVESLLDYVGDTVPILVRVFEDHEAEWVEARGGTPIRFAHAASDAFMEWFRRAQSARSKQPPSGT	failed
KRKTKEQLAILKSFFLQCQWARREDYQKLEQITGLPRPEIIQWFGDTRYALKHGQLKWFRDNA	not failed
MDKVYLTWWQVDRAIFALAEKLREYKPDVIIGVARGGLIPAVRLSHILGDIPLKVIDVKFYKGIDERGEKPVITIPIHGDLKDKRVVIVDDVSDTGKTLEVVIEEVKKLGAKEIKIACLAMKPWTSVVPDYYVFRTEKWIVFPWEEFPVIEKE	not failed
MRDHVEIGIGREARRTYSLDDISVVSSRRTRSSKDVDTTWHIDAYKFDLPFMNHPSDALASPEFVIEMGKQGGLGVINAEGLWGRHADLDEAIAKVIAAYEEGDQAAATRTLQELHAAPLDTELLSERIAQVRDSGEIVAVRVSPQNVREIAPIVIKAGADLLVIQGTLISAEHVNTGGEALNLKEFIGSLDVPVIAGGVNDYTTALHMMRTGAVGIIVGGGENTNSLALGMEVSMATAIADVAAARRDYLDETGGRYVHIIADGSIENSGDVVKAIACGADAVVLGSPLARAEEAAGKGYFWPAVAAHPRFPRGVVTESVDLDEAAPSLEQILHGPSTMPWGVENFEGGLKRALAKCGYTDLKSFQKVSLHVN	not failed
SSTFSASDFNSERYSSSRPSYPSDFYKMIDEYHDGERKLLVDVGCGPGTATLQMAQELKPFEQIIGSDLSATMIKTAEVIKEGSPDTYKNVSFKISSSDDFKFLGADSVDKQKIDMITAVECAHWFDFEKFQRSAYANLRKDGTIAIWGYADPIFPDYPEFDDLMIEVPYGKQGLGPYWEQPGRSRLRNMLKDSHLDPELFHDIQVSYFCAEDVRDKVKLHQHTKKPLLIRKQVTLVEFADYVRTWSAYHQWKQDPKNKDKEDVADWFIKESLRRRPELSTNTKIEVVWNTFYKLGKRV	not failed

— a protein production outcome set (Wang et al. 2014)
